Data on one molecule can be found in patent publication US20200360469A1 (UNIVERSITY OF THE SCIENCES, published 2020).

The assay has as its target full-length (FL) BRAF^G469A, 6x-HIS/BRAF^G469A/FLAG (human, UniProt P15056 2-766). In words: cell-based or functional assay.

Chain of full-length (FL) BRAF^G469A, 6x-HIS/BRAF^G469A/FLAG (P15056 2-766 G469A): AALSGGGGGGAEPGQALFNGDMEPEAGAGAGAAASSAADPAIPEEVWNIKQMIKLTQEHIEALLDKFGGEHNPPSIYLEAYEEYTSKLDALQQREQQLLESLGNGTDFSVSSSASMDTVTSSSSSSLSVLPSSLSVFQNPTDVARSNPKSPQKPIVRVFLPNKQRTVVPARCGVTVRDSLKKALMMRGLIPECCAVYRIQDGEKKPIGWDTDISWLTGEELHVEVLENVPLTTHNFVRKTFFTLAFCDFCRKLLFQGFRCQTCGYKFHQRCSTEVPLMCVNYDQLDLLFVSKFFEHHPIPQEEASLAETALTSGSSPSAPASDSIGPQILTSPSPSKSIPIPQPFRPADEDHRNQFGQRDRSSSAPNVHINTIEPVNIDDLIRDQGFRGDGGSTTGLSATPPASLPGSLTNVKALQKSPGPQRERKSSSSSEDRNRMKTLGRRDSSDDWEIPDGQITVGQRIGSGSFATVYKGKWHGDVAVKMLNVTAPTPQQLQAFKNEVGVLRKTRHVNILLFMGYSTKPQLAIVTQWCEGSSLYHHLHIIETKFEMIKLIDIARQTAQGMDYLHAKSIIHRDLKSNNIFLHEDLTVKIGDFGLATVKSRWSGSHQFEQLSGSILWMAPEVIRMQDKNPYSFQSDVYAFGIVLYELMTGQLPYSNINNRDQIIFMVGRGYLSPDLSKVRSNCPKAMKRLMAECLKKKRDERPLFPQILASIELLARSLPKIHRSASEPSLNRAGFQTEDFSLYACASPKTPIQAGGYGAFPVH

B1: null-braftide (peptide)
peptide: THHVNILLFM
For the molecule B1, the “IC50, ELISA-based kinase assay (phosphorylation of kinase-dead MEK)” value is 2.5 µM.
